One series addresses T1, drRecR (Deinococcus radiodurans, UniProt Q9ZNA2 1-220).
T1 sequence: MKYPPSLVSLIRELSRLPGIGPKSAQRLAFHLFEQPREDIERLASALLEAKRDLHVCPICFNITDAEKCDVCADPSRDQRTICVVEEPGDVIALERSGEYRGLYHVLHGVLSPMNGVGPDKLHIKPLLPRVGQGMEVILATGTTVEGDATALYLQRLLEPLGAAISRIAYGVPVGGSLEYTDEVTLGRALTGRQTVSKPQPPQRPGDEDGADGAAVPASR
In words: fluorescence anisotropy.

The target in a further series is T2, drRecO Q59E;drRecR (Deinococcus radiodurans;Deinococcus …, UniProt Q9RW50;Q9ZNA2 1-244;1-220, Q59E|).
T2 sequence 1: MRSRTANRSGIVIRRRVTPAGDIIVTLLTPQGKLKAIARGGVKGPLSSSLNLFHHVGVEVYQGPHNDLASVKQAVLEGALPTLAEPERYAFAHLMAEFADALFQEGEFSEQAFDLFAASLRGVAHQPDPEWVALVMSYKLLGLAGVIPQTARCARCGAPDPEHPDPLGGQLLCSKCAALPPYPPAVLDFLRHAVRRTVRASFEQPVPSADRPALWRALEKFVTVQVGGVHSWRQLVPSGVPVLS
T2 sequence 2: T1 sequence
The series is described as follows: fluorescence anisotropy.

The next series has as its target T3, drRecO (Deinococcus radiodurans, UniProt Q9RW50 1-244).
T3 sequence: T2 sequence 1 with E59Q
In words: fluorescence anisotropy. (In fluorescence polarisation assays a small probe gives low polarisation when free and higher when bound to something large.)

A further series deals with T4, drRecO;drRecR K23E/R27E (Deinococcus radiodurans;Deinococcus …, UniProt Q9RW50;Q9ZNA2 1-244;1-220, |K23E;R27E).
T4 sequence 1: T2 sequence 1 with E59Q
T4 sequence 2: T1 sequence with K23E, R27E
The series is described as follows: fluorescence anisotropy.

For a further series, the target named is T5, drRecO K72E/Q73E;drRecR (Deinococcus radiodurans;Deinococcus …, UniProt Q9RW50;Q9ZNA2 1-244;1-220, K72E;Q73E|).
T5 sequence 1: T2 sequence 1 with E59Q, K72E, Q73E
T5 sequence 2: T1 sequence
In words: fluorescence anisotropy.

For the next series, the target named is T6, drRecO K43E/K72E;drRecR (Deinococcus radiodurans;Deinococcus …, UniProt Q9RW50;Q9ZNA2 1-244;1-220, K43E;K72E|).
T6 sequence 1: T2 sequence 1 with K43E, E59Q, K72E
T6 sequence 2: T1 sequence
In words: fluorescence anisotropy.

The series “crystal structure” deals with the molecule itself. The series is described as follows: crystal structure.
The target of series [1] is T7, Deinococcus radiodurans RecO, N-terminal hexa-histidine tag (Deinococcus radiodurans, UniProt Q9RW50 1-244).
T7 sequence (looked up): T2 sequence 1 with E59Q
In words: crystal structure.

The series “SAXS” deals with the molecule itself. In words: SAXS.
Series [2] concerns the target T8, Deinococcus radiodurans RecO, C-terminal hexa-histidine tag (Deinococcus radiodurans, UniProt Q9RW50 1-244).
T8 sequence (looked up): T2 sequence 1 with E59Q
The series is described as follows: SAXS.

Numbering of substitutions follows the chain as printed. Names and notes keep the numbering of the source.

As a reminder, the Kd is the equilibrium constant for the complex coming apart. Low readings indicate a tighter complex, high ones a looser complex. A word on the stoichiometry N: it is the number of molecules, sites or subunits per partner or assembly.

On to TTTTTTTTTTTTTTTTTTTTTTTTTTTTTTTTTTTTTTTTTTTTTTTTTT (ssDNA) [50mer poly(dT) ssDNA], for which the binding result is reported as “no binding” in the series with drRecR; “no binding” in the series with drRecO Q59E;drRecR; “no binding” with drRecO;drRecR K23E/R27E; “binds” in the series with drRecO K72E/Q73E;drRecR; “binds” in the series with drRecO K43E/K72E;drRecR. This molecule showed a Kd in the series with drRecO of 8.7 µM.

B1: 50mer dsDNA (dsDNA)
DNA 1: GACTACGTACTGTTACGGCTCCATCTCTACCGCAATCAGGCCAGATCTGC
DNA 2: GCAGATCTGGCCTGATTGCGGTAGAGATGGAGCCGTAACAGTACGTAGTC
B1: the binding result with drRecR, with drRecO Q59E;drRecR and with drRecO;drRecR K23E/R27E was “no binding” throughout.

B2: Deinococcus radiodurans RecR K23A/R27A double mutant (natural protein, UniProt Q9ZNA2 1-220, looked up)
chain: T1 sequence with K23A, R27A
With B2, in the series “crystal structure”, the “stoichiometry N” value worked out at 4. In series [1], the binding result is “binds”.

B3: Deinococcus radiodurans RecR, full length, without tag (natural protein, UniProt Q9ZNA2 1-220, looked up)
chain: T1 sequence
B3: the “stoichiometry N” value in the series “SAXS” was 2.

B4: Deinococcus radiodurans RecR, full length, C-terminal hexa-histidine tag (natural protein, UniProt Q9ZNA2 1-220, looked up)
chain: T1 sequence
With B4, the binding result in series [2] is listed as “binds”.

The values are drawn from article PMC3763555 (Nucleic Acids Research, 2013).
